Laboratory results as given in the supplement of paper PMC10567573.

B1: ZNF263 (parent)
chain: FAHSSNLLRHQRIHTGERPYKCPE

Variants of: B1
Assay: protein stability index of a GFP-peptide fusion (GPS, HEK-293T) (PSI 1-6); higher = more stable
Conditions: c terminus: a fixed tail appended
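Further: lentivirally expressed fusions sorted by FACS into six bins by GFP to DsRed ratio, PSI derived from sequencing read proportions per bin multiplied by bin number.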

Protein stability index of substitutions, site by site:
P19: G 2.59 | I 2.38 | M 3.05 | D 3.71 | S 2.69 | T 3.02 | W 1.83 | F 2.74 | E 3.67 | L 2.65 | Y 2.58 | V 2.67 | K 3.02 | H 2.89 | R 2.9 | Q 3.17 | N 2.75 | A 2.54 | C 2.48
R12: P 2.38 | S 2.8 | Y 2.1 | A 2.91 | Q 3.09 | T 2.48 | D 3.3 | M 2.52 | H 3.01 | F 2.17 | C 2.54 | L 2.44 | N 2.84 | I 2.33 | W 1.87 | V 2.73 | K 2.56 | E 2.95 | G 2.72
L7: G 2.43 | K 2.54 | C 2.08 | M 2.39 | I 2.2 | F 1.84 | R 2.58 | N 2.93 | A 2.83 | H 2.94 | D 2.75 | W 2.48 | V 2.68 | E 3.14 | P 2.02 | T 2.45 | Q 3.21 | Y 1.6 | S 2.52
L8: H 2.01 | G 2.35 | N 2.8 | M 2.68 | P 2.78 | Q 2.97 | W 2.64 | F 1.8 | T 3.04 | I 2.71 | V 2.55 | K 2.46 | R 2.53 | S 3.14 | A 2.37 | C 2.13 | E 3.3 | Y 2.78 | D 3.05
S4: R 2.07 | N 2.7 | V 2.24 | P 2.62 | T 2.13 | Y 2.45 | W 2.62 | Q 2.06
R18: F 2.16 | L 2.39 | S 2.35 | C 2.23 | M 2.2 | E 3.36 | P 2.45 | Y 1.86 | G 2.54 | Q 2.36 | K 2.09 | V 2.46 | A 2.68 | D 3.28 | H 2.52 | N 2.45 | I 2.21 | T 2.27 | W 2.66
R9: V 2.58 | S 2.63 | N 2.85 | G 2.45 | T 2.9 | E 3.23 | Y 2.36 | A 2.39 | C 2.68 | D 2.62 | K 2.93 | M 3.05 | Q 2.87 | P 3.19 | H 2.85 | I 2.21 | F 2.06 | L 2.88
E17: W 2.16 | G 1.81 | S 2.29 | P 2.63 | N 1.8 | A 2.31 | K 1.44 | C 1.65 | Y 1.47 | T 2.19 | I 2.29 | D 1.91 | M 1.98 | R 1.95 | Q 2.86 | H 2.47 | V 2.44 | F 1.95 | L 2.04
H14: C 3.21 | N 2.71 | L 2.57 | E 2.73 | S 2.46 | P 3.05 | F 2.16 | M 3 | R 2.18 | I 2.57 | A 2.99 | K 2.08 | V 2.34 | Q 2.98 | G 2.59 | Y 1.9 | W 3.6 | D 2.81 | T 1.91
H10: Y 2.51 | L 1.94 | W 1.8 | R 1.8 | K 1.73 | M 1.91 | D 3.13 | V 1.79 | F 1.69 | C 2.76 | P 2.82 | Q 2.37 | S 1.95 | E 2.77 | N 2.38 | I 1.81 | A 2.38 | G 2.44 | T 2.2
Y20: K 3.43 | Q 3.48 | M 2.72 | N 3.29 | I 2.63 | G 3.32 | H 3.23 | T 3.38 | D 3.46 | A 3.51 | L 2.81 | P 3.02 | S 3.31 | F 2.77 | E 3.68 | C 2.37 | R 2.91 | W 2.75 | V 3.48
K21: Y 2.81 | T 2.83 | C 2.56 | W 2.64 | D 2.62 | P 2.51 | R 1.97 | N 3.13 | E 2.79 | G 2.21 | F 2.56 | M 2.07 | A 2.41 | I 2.6 | H 2.49 | V 2.65 | Q 2.3 | L 2.4 | S 2.29
Q11: C 3.7 | A 1.61 | F 1.48 | E 2.56 | Y 2.49 | T 2.28 | I 1.31 | G 2.18 | P 1.79 | K 2.03 | M 1.84 | L 1.69 | H 2.5 | V 2.14 | D 2.98 | R 2.2 | N 3.13 | S 1.98
N6: Q 2.49 | E 2.62 | W 3.04 | V 1.91 | S 2.27 | R 1.99 | K 2.17 | D 2.41 | C 1.4 | Y 1.63 | L 1.58 | H 2 | T 2.3 | P 1.98 | G 2.21 | I 1.56 | F 1.73 | M 2.15 | A 1.77
S5: C 2.02 | L 1.96 | Q 2.15 | R 2.44 | I 2.31 | N 2.3 | T 2.7 | M 2.28 | W 2.24 | D 2.87 | V 2.12 | P 2.25 | H 1.81 | G 1.74 | E 2.75 | K 1.91 | F 1.94 | Y 2.13 | A 2.04
G16: I 2.22 | T 2.56 | Q 2.01 | E 2.67 | K 2.23 | S 1.97 | W 1.32 | N 2.43 | C 2.36 | A 2.37 | M 1.88 | H 2.02 | D 2.77 | L 2.07 | V 2.1 | F 1.37 | R 1.57 | P 2.37 | Y 1.93
I13: P 3.22 | S 2.68 | Y 2.43 | W 1.99 | C 2.46 | H 2.77 | Q 2.83 | M 2.12 | G 2.91 | F 2.14 | A 2.85 | R 2.39 | E 3.23 | L 2.07 | T 2.82 | N 2.99 | V 2.13 | K 2.68 | D 3.09
T15: Q 2.19 | P 1.87 | L 2.36 | R 2.5 | S 2.65 | D 2.56 | M 2.36 | K 1.99 | Y 2.23 | V 2.68 | F 2.58 | N 2.36 | I 2.29 | A 1.97 | W 1.6 | C 1.95 | E 2.24 | G 2.19 | H 2.12
C22: F 2.08 | G 2.36 | E 3.37 | A 3.1 | D 3.74
